From patent US20250051465A1 (published 2025) come the findings set out here.

Assay [1] concerns the target T1, full length human LEPR on cells (human, UniProt P48357 22-1165).
T1 sequence: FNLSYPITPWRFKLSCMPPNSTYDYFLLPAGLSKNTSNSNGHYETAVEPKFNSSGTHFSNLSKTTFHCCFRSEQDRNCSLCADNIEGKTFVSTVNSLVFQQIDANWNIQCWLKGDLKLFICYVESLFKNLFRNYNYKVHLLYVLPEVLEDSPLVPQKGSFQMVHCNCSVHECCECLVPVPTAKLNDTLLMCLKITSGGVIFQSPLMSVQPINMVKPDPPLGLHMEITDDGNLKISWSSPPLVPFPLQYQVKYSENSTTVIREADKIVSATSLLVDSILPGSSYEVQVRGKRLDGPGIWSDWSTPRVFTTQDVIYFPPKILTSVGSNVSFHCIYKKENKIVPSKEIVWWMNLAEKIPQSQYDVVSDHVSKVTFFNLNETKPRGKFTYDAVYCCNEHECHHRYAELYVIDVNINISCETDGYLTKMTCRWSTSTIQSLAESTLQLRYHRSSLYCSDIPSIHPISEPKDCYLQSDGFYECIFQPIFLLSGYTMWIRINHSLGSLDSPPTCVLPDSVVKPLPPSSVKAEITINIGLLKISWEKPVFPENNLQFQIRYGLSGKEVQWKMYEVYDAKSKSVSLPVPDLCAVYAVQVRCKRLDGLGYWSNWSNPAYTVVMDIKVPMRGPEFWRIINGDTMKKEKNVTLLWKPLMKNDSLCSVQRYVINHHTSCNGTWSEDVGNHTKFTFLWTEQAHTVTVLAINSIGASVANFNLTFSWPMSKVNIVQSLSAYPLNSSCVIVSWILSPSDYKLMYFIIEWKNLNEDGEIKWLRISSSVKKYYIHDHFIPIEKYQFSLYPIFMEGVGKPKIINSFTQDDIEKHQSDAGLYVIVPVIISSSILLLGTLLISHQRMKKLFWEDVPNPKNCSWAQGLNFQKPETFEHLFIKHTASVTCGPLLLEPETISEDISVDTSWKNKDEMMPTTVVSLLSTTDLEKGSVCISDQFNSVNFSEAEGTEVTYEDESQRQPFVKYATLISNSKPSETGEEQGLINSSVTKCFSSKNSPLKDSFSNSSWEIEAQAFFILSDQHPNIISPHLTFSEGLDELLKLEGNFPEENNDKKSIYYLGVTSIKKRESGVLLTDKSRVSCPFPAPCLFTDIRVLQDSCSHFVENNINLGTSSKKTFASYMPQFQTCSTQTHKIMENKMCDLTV
As to the kind of experiment: cell-based or functional assay.

The target of assay [2] is mouse LEPR extracellular domain expressed with a C-terminal myc-myc-hexahistidine tag (mLEPR.mmh) (mouse, UniProt P48356 22-839). As to the kind of experiment: SPR, captured mAb, 25C and 37C. (In general: Surface plasmon resonance follows binding to a sensor surface in real time, without labels.)
Chain of mouse LEPR extracellular domain expressed with a C-terminal myc-myc-hexahistidine tag (mLEPR.mmh) (P48356 other isoform, or with tags, fused parts or gaps): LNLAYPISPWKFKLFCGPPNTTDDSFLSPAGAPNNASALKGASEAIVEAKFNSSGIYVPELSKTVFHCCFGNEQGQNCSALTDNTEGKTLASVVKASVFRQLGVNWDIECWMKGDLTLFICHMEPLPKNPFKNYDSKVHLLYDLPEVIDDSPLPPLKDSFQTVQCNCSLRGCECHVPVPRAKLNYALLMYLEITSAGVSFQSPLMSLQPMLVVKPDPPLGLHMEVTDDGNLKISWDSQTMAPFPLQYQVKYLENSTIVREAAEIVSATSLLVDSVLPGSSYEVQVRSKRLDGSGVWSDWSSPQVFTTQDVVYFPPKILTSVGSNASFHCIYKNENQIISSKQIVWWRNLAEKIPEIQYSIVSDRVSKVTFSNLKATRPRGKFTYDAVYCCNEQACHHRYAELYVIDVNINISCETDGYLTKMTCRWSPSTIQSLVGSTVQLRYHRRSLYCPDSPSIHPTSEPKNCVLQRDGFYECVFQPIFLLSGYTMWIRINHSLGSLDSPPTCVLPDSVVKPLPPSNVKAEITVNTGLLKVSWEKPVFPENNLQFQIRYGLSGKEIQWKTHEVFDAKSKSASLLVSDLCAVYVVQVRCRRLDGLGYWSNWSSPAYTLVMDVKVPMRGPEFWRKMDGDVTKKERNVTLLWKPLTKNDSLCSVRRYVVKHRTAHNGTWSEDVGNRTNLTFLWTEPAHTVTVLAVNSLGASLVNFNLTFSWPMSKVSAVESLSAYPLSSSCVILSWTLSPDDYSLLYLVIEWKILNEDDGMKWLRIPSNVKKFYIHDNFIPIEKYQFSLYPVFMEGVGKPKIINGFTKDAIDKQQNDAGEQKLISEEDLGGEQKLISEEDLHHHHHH
Assay [3] has as its target rat LEPR extracellular domain expressed with a C-terminal myc-myc-hexahistidine tag (rLEPR.mmh) (rat, UniProt Q62959 22-839). As to the kind of experiment: SPR, captured mAb, 25C and 37C.
The target of a further assay is T2, human LEPR FNIII-MMH (human, UniProt P48357 636-839, limits assumed).
T2 construct: domain: FNIII; Transiently expressed, captured from supernatant on anti-myc beads
T2 sequence (P48357 other isoform, or with tags, fused parts or gaps limits assumed): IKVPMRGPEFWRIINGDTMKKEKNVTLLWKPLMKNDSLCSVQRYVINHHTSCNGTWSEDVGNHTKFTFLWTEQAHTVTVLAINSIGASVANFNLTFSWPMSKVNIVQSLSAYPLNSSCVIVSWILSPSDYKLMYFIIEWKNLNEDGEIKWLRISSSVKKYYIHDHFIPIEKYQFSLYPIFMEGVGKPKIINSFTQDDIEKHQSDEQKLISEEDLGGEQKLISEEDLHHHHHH
In words: Luminex, myc-captured LEPR domain. As for the experimental part:
(§1) Aliquots of microspheres with immobilized anti-myc monoclonal antibodies, prepared as described above, were added individually to 1 mL of the each of these protein supernatants. The microspheres were gently mixed, incubated for two hours at 25° C., washed twice with 1 mL of DBPS, centrifuged to remove the supernatant and finally resuspended in 1 mL of DPBS buffer. Forty-eight μL of anti-myc IgG coupled microspheres from individual reactions with full length human LEPR and with each of the human LEPR domain proteins were withdrawn and mixed together in 3.6 mL of PBS+20 mg/mL BSA+0.05% sodium azide (blocking buffer).
(§2) From this mixed pool, 75 μL of microspheres were plated per well on a 96 well filter plate (Millipore, Cat. No: MSBVN1250) and mixed with 25 μL of individual anti-human LEPR monoclonal antibodies (0.5 or 5 µg/mL), incubated for two hours at 25° C. and then washed twice with 200 μL of DPBS with 0.05% Tween 20 (washing buffer). […] After 30 minutes, the samples were washed twice with 200 μL of washing buffer and resuspended in 150 μL of wash buffer. The Median Fluorescence intensity (MFI) of the microspheres was measured in a Luminex Analyzer.

For assay [4], the target named is T3, human LEPR CRH1 (D1,D2,D3)-MMH (human, UniProt P48357 22-427, limits assumed).
T3 construct: domain: CRH1-Ig (D1,D2,D3); Transiently expressed, captured from supernatant on anti-myc beads; also called CRH1-Ig (D1, D2, D3)
As to the kind of experiment: Luminex, myc-captured LEPR domain. As for the experimental part:
as §1, §2

Assay [5] addresses T4, human LEPR Ig-CRH2-FNIII-MMH (human, UniProt P48357 330-839, limits assumed).
T4 construct: domain: Ig-CRH2-FNIII; Transiently expressed, captured from supernatant on anti-myc beads
In words: Luminex, myc-captured LEPR domain. As for the experimental part: as §1, §2

For assay [6], the target named is T5, human LEPR CRH1 (D1,D2)-MMH (human, UniProt P48357 22-339, limits assumed).
T5 construct: domain: CRH1 (D1,D2); Transiently expressed, captured from supernatant on anti-myc beads
In words: Luminex, myc-captured LEPR domain. As to the method:
as §1, §2

The target of a further assay is T6, human LEPR CRH2-MMH (human, UniProt P48357 428-634, limits assumed).
T6 construct: domain: CRH2; Transiently expressed, captured from supernatant on anti-myc beads
T6 sequence (P48357 other isoform, or with tags, fused parts or gaps limits assumed): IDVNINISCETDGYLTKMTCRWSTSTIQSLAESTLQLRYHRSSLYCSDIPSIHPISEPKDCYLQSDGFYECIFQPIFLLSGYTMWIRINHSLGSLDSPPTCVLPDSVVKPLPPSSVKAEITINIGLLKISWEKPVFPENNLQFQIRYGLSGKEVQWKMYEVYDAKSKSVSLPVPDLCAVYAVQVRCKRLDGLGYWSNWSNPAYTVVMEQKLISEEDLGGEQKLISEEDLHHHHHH
As to the kind of experiment: Luminex, myc-captured LEPR domain. As for the experimental part: as §1, §2

Assay [7] concerns the target T7, human LEPR CRH1-Ig (D2,D3)-MMH (human, UniProt P48357 230-427, limits assumed).
T7 construct: domain: CRH1-Ig (D2,D3); Transiently expressed, captured from supernatant on anti-myc beads
As to the kind of experiment: Luminex, myc-captured LEPR domain. As to the method: as §1, §2

For a further assay, the target named is T8, human LEPR Ig (D3)-MMH (human, UniProt P48357 340-427, limits assumed).
T8 construct: domain: Ig (D3); Transiently expressed, captured from supernatant on anti-myc beads
T8 sequence (P48357 other isoform, or with tags, fused parts or gaps limits assumed): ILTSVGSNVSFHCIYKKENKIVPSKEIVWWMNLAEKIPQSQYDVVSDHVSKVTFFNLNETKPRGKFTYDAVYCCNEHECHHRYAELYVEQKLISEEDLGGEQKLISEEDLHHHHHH
In words: Luminex, myc-captured LEPR domain. As for the experimental part:
as §1, §2

Another assay concerns the target T9, human LEPR CRH1 (D1)-MMH (human, UniProt P48357 22-229, limits assumed).
T9 construct: domain: CRH1 (D1); Transiently expressed, captured from supernatant on anti-myc beads
As to the kind of experiment: Luminex, myc-captured LEPR domain. As to the method:
as §1, §2

Chain of rat LEPR extracellular domain expressed with a C-terminal myc-myc-hexahistidine tag (rLEPR.mmh) (Q62959 other isoform, or with tags, fused parts or gaps): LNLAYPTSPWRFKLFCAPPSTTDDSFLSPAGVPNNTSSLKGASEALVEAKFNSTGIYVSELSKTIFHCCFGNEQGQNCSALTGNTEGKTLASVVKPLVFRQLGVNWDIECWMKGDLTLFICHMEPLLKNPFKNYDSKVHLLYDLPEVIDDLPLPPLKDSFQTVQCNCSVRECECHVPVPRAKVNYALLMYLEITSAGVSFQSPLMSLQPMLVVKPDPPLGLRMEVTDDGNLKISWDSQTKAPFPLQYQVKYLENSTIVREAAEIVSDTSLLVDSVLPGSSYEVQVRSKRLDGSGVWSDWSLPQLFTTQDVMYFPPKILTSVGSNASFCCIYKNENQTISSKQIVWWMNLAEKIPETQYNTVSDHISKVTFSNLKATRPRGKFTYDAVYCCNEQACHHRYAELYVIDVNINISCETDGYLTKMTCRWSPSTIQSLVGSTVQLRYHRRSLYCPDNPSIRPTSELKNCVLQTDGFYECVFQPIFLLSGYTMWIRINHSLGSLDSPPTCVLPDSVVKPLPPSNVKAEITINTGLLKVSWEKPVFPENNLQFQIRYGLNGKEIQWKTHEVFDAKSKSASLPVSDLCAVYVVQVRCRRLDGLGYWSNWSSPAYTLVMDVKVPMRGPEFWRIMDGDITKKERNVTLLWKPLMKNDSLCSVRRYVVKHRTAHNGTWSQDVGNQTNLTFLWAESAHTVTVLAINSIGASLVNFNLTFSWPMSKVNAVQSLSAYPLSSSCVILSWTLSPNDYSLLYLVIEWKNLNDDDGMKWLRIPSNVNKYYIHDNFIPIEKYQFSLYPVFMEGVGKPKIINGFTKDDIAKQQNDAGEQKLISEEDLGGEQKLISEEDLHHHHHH
T4 sequence (P48357 other isoform, or with tags, fused parts or gaps limits assumed): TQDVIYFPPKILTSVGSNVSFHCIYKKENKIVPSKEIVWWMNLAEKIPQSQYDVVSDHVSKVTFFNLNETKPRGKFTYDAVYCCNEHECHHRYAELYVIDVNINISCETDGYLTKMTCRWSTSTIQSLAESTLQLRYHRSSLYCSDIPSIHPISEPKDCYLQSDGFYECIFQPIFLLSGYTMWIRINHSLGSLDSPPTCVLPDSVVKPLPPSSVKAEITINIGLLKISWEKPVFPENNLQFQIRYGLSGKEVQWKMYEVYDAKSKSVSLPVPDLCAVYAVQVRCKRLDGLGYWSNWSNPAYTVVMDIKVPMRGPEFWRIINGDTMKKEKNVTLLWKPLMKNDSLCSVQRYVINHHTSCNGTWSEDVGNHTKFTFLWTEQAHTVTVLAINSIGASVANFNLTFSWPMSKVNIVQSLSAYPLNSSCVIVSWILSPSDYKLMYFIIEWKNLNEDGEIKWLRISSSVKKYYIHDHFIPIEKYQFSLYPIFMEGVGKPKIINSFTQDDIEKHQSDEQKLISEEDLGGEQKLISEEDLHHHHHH
T7 sequence (P48357 other isoform, or with tags, fused parts or gaps limits assumed): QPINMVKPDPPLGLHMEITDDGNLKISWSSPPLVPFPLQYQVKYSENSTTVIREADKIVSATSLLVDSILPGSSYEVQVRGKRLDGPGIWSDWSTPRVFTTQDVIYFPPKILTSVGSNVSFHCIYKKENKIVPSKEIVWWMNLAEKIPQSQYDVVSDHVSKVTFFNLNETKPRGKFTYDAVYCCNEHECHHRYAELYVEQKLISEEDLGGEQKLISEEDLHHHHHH

B1: H4H16679P2 (antibody, human IgG4, V domains shown)
VH: QVQLVESGGGVVQPGRSLRLSCTASGFTFSSYAMYWVRQAPGKGLEWVSVIYYDGSYKYYADSVKGRFTISRDNSKNTLYLQMDSLRAEDTAVYYCASYNWNYWYFDFWGRGTLVTVSS
VL: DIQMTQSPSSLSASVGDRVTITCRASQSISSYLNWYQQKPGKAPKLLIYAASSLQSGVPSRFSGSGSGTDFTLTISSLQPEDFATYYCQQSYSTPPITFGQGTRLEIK
notes: Fully human antibody with human IgG4 Fc (H4H prefix)
In the case of B1, the “% activation, with 200 pM human Leptin” value in assay [1] is 88%. In assay [1], the “% activation, without human Leptin” value stood at 65%. In addition, the “EC50, STAT3-Luc reporter, with 200 pM human Leptin” value (from here on “EC50 … with 200 pM human Leptin”) in assay [1] is 7.37e-11 M. For the same molecule, the “EC50, STAT3-Luc reporter, without human Leptin” value (from here on “EC50 … without human Leptin”) in [1] was determined as 0.0862 nM. In addition, the binding result in [2] and in assay [3] was “no binding” throughout. The MFI stood at 10 MFI in the assay with human LEPR FNIII-MMH; 2800 MFI in assay [4]; 42 MFI in assay [5]; 4390 MFI in assay [6]; 33 MFI in the assay with human LEPR CRH2-MMH; 34 MFI in [7]. Moreover, the MFI in the assay with human LEPR Ig (D3)-MMH was 14 MFI; with human LEPR CRH1 (D1)-MMH, 12 MFI.

B2: H4H17321P2 (antibody, human IgG4, V domains shown)
VH: QVQLVESGGGVVQPGRSLRLSCEASGFSSSDNAMYWVRQAPGKGLEWVSVIYHDGSYKYYEDSVKGRFTIARDNSKNTLYLQMNSLRAEDTAVYYCARYNWNHWYFDVWGRGTLVTVSS
VL: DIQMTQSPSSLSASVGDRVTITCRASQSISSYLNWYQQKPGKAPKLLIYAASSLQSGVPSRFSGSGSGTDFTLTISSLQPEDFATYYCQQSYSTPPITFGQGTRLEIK
notes: as for B1
For B2, the “% activation, with 200 pM human Leptin” value in assay [1] was 76%. Further, the “% activation, without human Leptin” value in assay [1] was 66%. In [1], the “EC50 … with 200 pM human Leptin” value stood at 2.57e-10 M. For the same molecule, the “EC50 … without human Leptin” value in [1] turned out to be 0.207 nM. Further, the binding result in assay [2] and in assay [3] was “no binding” in each case. The MFI was 40 MFI with human LEPR FNIII-MMH; 1750 MFI in assay [4]; 14 MFI in assay [5]; 2650 MFI in assay [6]; 116 MFI with human LEPR CRH2-MMH; 15 MFI in assay [7]. Further, the MFI was 7 MFI in the assay with human LEPR Ig (D3)-MMH and 9 MFI in the assay with human LEPR CRH1 (D1)-MMH.

B3: H4H17319P2 (antibody, human IgG4, V domains shown)
VH: QVQLVESGGSVVQPGRSLRLSCAASGFTFSTYAMYWVRQTPGKGLEWVAVLYSDGSNKYYIDSVKGRFTISRDTSTNTLYLQMSSLRADDSALYYCARLNWDYWYFDLWGRGTLVTVSS
VL: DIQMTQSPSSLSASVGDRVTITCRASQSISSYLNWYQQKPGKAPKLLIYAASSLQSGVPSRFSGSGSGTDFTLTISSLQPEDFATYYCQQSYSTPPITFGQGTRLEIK
notes: as for B1
Turning to B3, the “% activation, with 200 pM human Leptin” value in assay [1] is 76%. Also, the “% activation, without human Leptin” value in assay [1] turned out to be 68%. Besides, in assay [1], the “EC50 … with 200 pM human Leptin” value is 1.91e-10 M. Further, the “EC50 … without human Leptin” value in assay [1] stood at 0.187 nM. Also, the binding result in assay [2] and in [3] was “no binding” in each case. In addition, the MFI in the assay with human LEPR FNIII-MMH was 20 MFI; in [4] it was 938 MFI; in assay [5], 8 MFI; in assay [6], 1250 MFI; with human LEPR CRH2-MMH, 91 MFI; in assay [7], 14 MFI. The MFI with human LEPR Ig (D3)-MMH and with human LEPR CRH1 (D1)-MMH was 8 MFI each time.
